In the nanobody polyreactivity screen of Harvey et al. (2022):

Assay: yeast display, Sf9 membrane polyspecificity reagent, FACS + sequencing; frameworks hold sequencing errors
Summary of the method: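 Nanobodies came from a synthetic yeast display library in Saccharomyces cerevisiae BJ5465, induced with galactose for 36–48 hours and stained for 1 hour at 4 °C with 10% biotinylated, detergent-solubilized Sf9 membrane reagent. Cells were enriched on streptavidin microbeads and then FACS-sorted, with low and high (top ~1%) gates set on anti-HA fluorescence for expression and streptavidin fluorescence for reagent binding. Each polyreactivity label reflects the gate a clone came from. Genes were amplified by colony PCR, sequenced by MiSeq 2 × 250 and filtered by CDR length.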

Sequence | polyreactivity (PSR sort gate)
QVQLVESGGGLVQARGSLRLSCAASGFTFYFYAMGWYRQATGKETELVAAISRSGSRTYYADSVKGRFTISRDNAKNTVYLQMNSLKPVDTAVYYCARVRPRGLYFVLHYDYWGQGTQVTVSS | high polyreactivity
QVQLVESGGGLVQAGGSLRLRCAASGRIFWSNAMGWYRQAPGKERELVAAISSGGSTNYADSEKGRFTISRDNAKNTVYLQMNSLKPEDTEVYYCATRGIQRGFSRWGGLDYWGQVTQVTVSS | low polyreactivity
QVQLVESGGGLVQAGGSLRLSCAASGSTFNHYTMGWYIQAPGKERELVAAISSRGGGTYYADSVKGRFTISRDNAKNTVYLQMNSLKPEDTAVYYCAALISSGIRHSRDYWGQGTQVTVSS | high polyreactivity
QVQLVESGGGLVQAGGSLRLSCAASGRIFVYYAMGWYRQAPGKERELVAAITSRDDSTYYADSVKGRFTISRDNAKNTVYLQMNSLKPEDTAVYYCNVVPKSRDWQSYGSWGQGTQVTVSS | high polyreactivity
QVQLVETGGGLVQAGGSLRLSCAASGSTFWYNAMGWYRQAPGKERELVAAISRSGATTYYADSVKGRFTISRDNAKNTVYLQMNSLKPEDTAVYYCNAVISPSSYVRNSDYWGQGTQVTVSS | low polyreactivity
QVQLVESGGGLVQAGGSLRLSCAASGRIFTHNAMGWYRQAPGKERELVAAISYSGVSTYYADSVKGRFTISRDNAKNTVYLQMNSLKPEDTAVYYCAARSRSWRQRYGDFDYWGQGTQVTVSS | low polyreactivity
QVQLVESGGGLVQAGGSLRLSCAASGRIFDANAMGWYRQAPGKERELVAAITVSGGSTYYADSVKGRFTISRDNAKNTVYLEMNSLKPEDTAVYYCAKSLVPWWYKVDYDYWGQGTQVTVSS | low polyreactivity
QVQLVESGGGLVQAGGSLRLSCAASGNTLDAYAMGWYRQAPGKERELVAAITSGGSTYYADSVKGRFTISRDNAKNTVYLQMNILKPEDTAVYYCNADGHPSDPGYDYWGQGTQVTVSS | low polyreactivity
QVQLVESGGGLVQAGGSLRLSSAASGRNFSRYAMGWYRQAPGKERELVAAINKSGGSTYYADSVKGRFTISRDNAKNTVYLQMNSLKPEDSAFYYCNAVYYWYKGDYWGQGSQVTVSS | high polyreactivity
QVQLVESGGGLVQAGGSLRLSCAATGGTFYVYAMGWYRQAPGKERELVARITWRGGRTYYADSVKGRFTISRDNAKNTVYLQMYSLKPEDTAVYYCNAEQYSQFDYWGQGTQVTVSS | high polyreactivity
QVQLVESGGGLVQAGGSLRLSCAASGRIIQRYAMGWYRQAPGKERELVATITFNTASTYYADSVKGRFTISRDNAQNTVYLQMNSLKPEDTAVYYCAAKHRGGYGYWGQGTQVTVSS | high polyreactivity
QVQLVESGGGLVQAGGSLRLISAASGRTFWTNAMGWYRQAPGKEREFVAAISWRGASTFYADSVKGRFTISRDNAKNTVYLQMNSLKPEDTAVYYCAAQSRTRSFYGKYDSWGQGTQVTVSS | low polyreactivity
QVQLVESGGGVVQAGGSLRLSCAASGRTFKPYAMGWYRQAPGKERELVAAISSGVSTHYADSVKGRFTISRDNAKNTVYLQMNSLKPEDTAVYYCAADYWVNYWFDYWGQGTQVTVSS | low polyreactivity
QVQLVESGGGLVQAGGSLRLSCAASGSISNQYVMGWYRQAPGKERELVAAIRVIGGSTSYADSVKGRFTISRDNAKNTVYLQMNSLKPEDTAVYYCAADWAWTISDGYYYGYPQYDYWGQGTQVTVSS | high polyreactivity
QVQLVESGGGLVQAGGSLRVSCAASGFTFYLYAMGWYRQAPGKERELVAAITWSGGRTYYADSVKGRFTISRDNAKNTVYLQMNSLKPEDTAVYNCAAVVRKQLSAPSDYWGQGTQVTVSS | high polyreactivity
QVHLVESGGGLVQAGGSLRLSCAASGSTIRRYAMGWYRQAPGTERELVASITNRGGSTYYADSVKGLFTISRDNAKNTFYLQMNSLKPEDTAVYYCAKKGVYGPLNEYWGQGTQVTVSS | high polyreactivity

Sequence | polyreactivity (PSR sort gate)
QVQLVESGGGLDQAGGSLRLSCAASGRIFYYYALGWYRQAPGKERELVAAITWIGTSTYYADSVKGRFTISRDNGKNTVYLQMNSLKPEDTAVYYCAAEGWVGAWWYVLDVRYDYWGQGTQVTVSS | low polyreactivity
QVQLVESGGGLVQAGGSLRLSCAASGSTFYSNAMGWYRQAPGKERELVASIRFSGVITTYADSVKGRFTISRDNAKNTVYLQMNSLKPEDTAVYYWAAGYLSTTAYDYWGQGTQVTVSS | low polyreactivity
QVQLVESAGGLVQAGGSLRLSCAPSGRIFGRYAMGWYRHAPGKERELVAAISFNGGSTSYADSVNGRFTISRDNAKNTVYLQMNTLKTEYTAVYYCAAKYRGFNYWGQGTQVTVSS | high polyreactivity
QVNLVYSAGGLVQAGGILRLSCTASGCTFYYNAMGWYRQEPGKVREVVARISRSGGSTYEDSVKGRFTISRDNAKNTVYLPMNSLKPEDTAVYYCNADAYGTPEFTSYAVSYDLWGQGTQVTVSS | low polyreactivity
QVQLVESGGGLVQAGGSLRLSCAASGRTFVYYTMGWYRQAPGKERELVAGIRRRGGRTYYADSVKGRFTISRDNAKNTVYLQMNSLKPEDTAVYYCAAQTRYQGYQEYYYWGQGTQVTVSS | high polyreactivity
QVQLVESGGGLVQAGGSLRLSCAASGRILPSNAMGWYRQAPGKEREFVAGISGSGGSTYYADSVKGRFTISRDNAKNTVYLQMNSLKPEDTAVYYCAAGRAYDGTKHDYWGQGTQVTVSS | high polyreactivity
QVQLVESGGGLVQAGGSLRLSCAASGSTFPHYAMGWYRQAPGKERELVAAISVRGGRTYYADSVKGRFTISRDNAKNTVYLQMNSLKPEDTAVYYCNKYYYFTKYGYWGQGTQVTVSS | high polyreactivity
QVQLVESGGGLVQAGGSLRLSSAASGRTFPSYDMGWYRQAPGKERELVAAISSSGGSTYYADSVKGRFTISRDNAKNTVYLQMNSLKPEDTAVYYCAAATPSGYYYWGQGTQVTVSS | high polyreactivity
QVQLVESGGGLVQAGGSLRLSCAASGFTFTYNDMGWYRQAPGKEREFVAAISSTGGSTYYADSVKGRFTISRDNAKNTVYLQMNSLKPEDTAVYYCAAEDSWYWDAWFDYWGQGTQVTVSS | low polyreactivity
QVQLVESGGGLVQAGGSLRLSCAASGSIYYAMGWYRQAPGKEREFVAAINSGGSTYYADSVKGRFTISRDNAKNTVYIQMNSLKPEDTAVYYCAKPTYRFYWGDFDYWGQGTQVTVSA | low polyreactivity
QVQHVESGGGLVQAGGSLRLSCAASGLTFSTYDMGWYRQAPGKERDLVAAITYSGGSTYYADSVKGRFTISRDHAKNTVYLQMNSLKPEDTAVYYSATTWYFVASWYVAIYDYWGQGTQVTVST | low polyreactivity
QVQLVDSVGGLVQAGGSLRLSCAASGSTFVYNTMGWYRQEPGKEREMVAAISYRGSTYYADSVKGRFTISRENAKNTVFLQMNSLKPEDNAVYYCNAPRRQYEYDYWGQGTQVTVSS | high polyreactivity
QVQLVESGGGLVQAGGSLRLSCAASGSIFAYKAKGWYRQAPGKEREFVAVITRSDDSTYAYSVKGRFTISRDNAKNPFYLQMNSLKAEDTAVYYCARRWSYLRPSLEYDSWGQGTQVTVSS | low polyreactivity
QVQLVESGGGLVQAGGSLRLSCAASGSTFVPYAMGWSSQAPGKERELVADISWSGGSTYYADSVKVRFTISRDNAKNTVYLQMNSLKPEDTAVYYCAARSIYKSKYDYWGQGTQVTVSS | high polyreactivity
QVQLVESGGGLVQAGGSLRLSCAASGSTFQYYAMGWYRQAPGKERELVAAISSGGSTYYADSVKGRFTISRDNAKNTVYLQMNSLKPEDTAVYYCAADFVKRQANRQFDYWGQGTQVTVSS | high polyreactivity
QVQLVESGGGLVQAGGSLRLICAASGYTFPYNVMGWYRQAQGKERELVAAITSSGGSTYYADSVKGRFTISRDNAKTTVYLQMNSLKPEDTAVYYCNASPSSSLFDYLGQGTQVTVSS | low polyreactivity
